Where a chain is given by its changes, count along the chain named.
B1: anti-DLL3 trispecific protein 3H010 (protein, part only; not given: anti-CD3 and anti-albumin domains, part only)
chain, part: EVQLVESGGGLVQPGGSLTLSCAASGSSVSFLSMAWYRQAPGKKRELVAGISADGSTAYIDSVKGRFTISRDNAKNSVYLQMNSLRAEDTAVYYCYAYRWTTRRTYWGQGTLVTVSSGGGGSGGGSGGGGSGGGSHHHHHH
B2: anti-DLL3 trispecific protein 4G09 (protein, part only; not given: anti-CD3 fragment and anti-albumin domain, part only)
chain, part: B1 chain, part with S28R, A53Y, A58D
B3: anti-DLL3 trispecific protein 4D04 (protein, part only; not given: anti-CD3 fragment and anti-albumin sdAb, part only)
chain, part: B1 chain, part with M34I, A53K, A58D, R104M
B4: anti-DLL3 trispecific protein 3G04 (protein, part only; not given: CD3 binder and albumin binder, part only)
chain, part: B1 chain, part with A23V, S27T, A58I
B5: anti-DLL3 trispecific protein 4F09 (protein, part only; not given: anti-CD3 and anti-albumin domains, part only)
chain, part: B1 chain, part with S28R, A58D, D61E, R104Y
B6: anti-DLL3 trispecific protein 4H08 (protein, part only; not given: anti-CD3 fragment and anti-albumin sdAb, part only)
chain, part: B1 chain, part with S30K, A58D, I60V, T101S, R104Y
B7: anti-DLL3 trispecific protein 4A02 (protein, part only; not given: anti-CD3 fragment and anti-albumin domain, part only)
chain, part: B1 chain, part with S30R, A53N, A58D, T101K, R104Y
B8: anti-DLL3 trispecific protein 1C06 (protein, part only; not given: anti-CD3 and anti-albumin domains, part only)
chain, part: EVQLVESGGGLVQPGGSLTLSCVASGSTSIINAMGWYRRAPGKQRELVAGISSDGSKVYEDSVKGRFTISRDNAKNSVYLQMNSLRAEDTAVYYCYYFRAVSGSSMRYWGQGTLVTVSSGGGGSGGGSGGGGSGGGSHHHHHH
B9: anti-DLL3 trispecific protein 1B07 (protein, part only; not given: anti-CD3 and anti-albumin domains, part only)
chain, part: B8 chain, part with T28G, I30S, E60S, A100H
B10: anti-DLL3 trispecific protein 1C012 (protein, part only; not given: anti-CD3 and anti-albumin domains, part only)
chain, part: B8 chain, part with S27I, I30S, E60A, D61G, A100T, S102R
B11: anti-DLL3 trispecific protein 1A07 (protein, part only; not given: anti-CD3 fragment and anti-albumin domain, part only)
chain, part: B8 chain, part with T28I, I30S, E60A, A100M
B12: anti-DLL3 trispecific protein 2A06 (protein, part only; not given: CD3 binder and albumin binder, part only)
chain, part: B8 chain, part with I30S, I31R, Y59T, E60A, A100T, V101R
B13: anti-DLL3 trispecific protein 2E09 (protein, part only; not given: anti-CD3 and anti-albumin domains, part only)
chain, part: B8 chain, part with T28V, I30S, E60A, D61S, V63A, A100T, V101L
B14: anti-DLL3 trispecific protein 1B03 (protein, part only; not given: anti-CD3 and anti-albumin domains, part only)
chain, part: B8 chain, part with S27K, I30S, G35A, E60T, A100T, M106A
B15: anti-DLL3 trispecific protein 1G07 (protein, part only; not given: anti-CD3 and anti-albumin domains, part only)
chain, part: B8 chain, part with I30S, Y59V, E60A, A100T, V101Y
B16: anti-DLL3 trispecific protein 2D05 (protein, part only; not given: anti-CD3 fragment and anti-albumin domain, part only)
chain, part: B8 chain, part with I30R, E60A, A100T, V101A
B17: anti-DLL3 trispecific protein 2A05 (protein, part only; not given: CD3 fragment and albumin sdAb, part only)
chain, part: B8 chain, part with S27R, I30S, E60N, A100T, S104T
B18: anti-DLL3 trispecific protein 1H010 (protein, part only; not given: anti-CD3 fragment and anti-albumin sdAb, part only)
chain, part: B8 chain, part with S29R, I30S, E60N, A100T, Y108F
B19: anti-DLL3 trispecific protein 1F06 (protein, part only; not given: anti-CD3 and anti-albumin domains, part only)
chain, part: B8 chain, part with S27T, I30S, Y59I, E60A, A100T, S102L

Target: biotinylated human DLL3 protein expressed as a human IgG1 fusion protein (human) (UniProt Q9NYJ7)
Sequence (Q9NYJ7 other isoform, or with tags, fused parts or gaps): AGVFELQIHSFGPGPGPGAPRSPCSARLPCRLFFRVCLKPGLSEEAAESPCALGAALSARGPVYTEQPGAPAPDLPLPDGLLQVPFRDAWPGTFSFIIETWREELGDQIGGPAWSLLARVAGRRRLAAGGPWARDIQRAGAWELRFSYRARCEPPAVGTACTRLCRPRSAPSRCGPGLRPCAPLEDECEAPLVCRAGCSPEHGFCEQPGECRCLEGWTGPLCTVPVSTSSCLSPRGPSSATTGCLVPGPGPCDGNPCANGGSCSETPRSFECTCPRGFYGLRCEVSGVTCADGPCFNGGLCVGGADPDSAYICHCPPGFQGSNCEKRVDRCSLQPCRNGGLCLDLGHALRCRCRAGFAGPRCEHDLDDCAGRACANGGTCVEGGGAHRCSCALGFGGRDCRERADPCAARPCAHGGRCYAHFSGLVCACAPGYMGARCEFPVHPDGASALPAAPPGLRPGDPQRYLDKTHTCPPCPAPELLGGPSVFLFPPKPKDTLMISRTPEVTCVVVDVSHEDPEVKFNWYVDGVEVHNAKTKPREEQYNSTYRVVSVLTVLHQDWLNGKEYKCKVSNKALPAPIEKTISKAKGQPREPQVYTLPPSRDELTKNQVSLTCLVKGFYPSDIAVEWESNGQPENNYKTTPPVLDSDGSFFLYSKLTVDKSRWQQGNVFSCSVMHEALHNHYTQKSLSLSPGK
Experiment: Octet BLI; biotinylated huDLL3-IgG1 fusion on streptavidin tips; single 50 nM; conditioned medium

Binder | Kd
B1 | 8.6 nM
B2 | 8.8 nM
B3 | 8.6 nM
B4 | 8.8 nM
B5 | 8.8 nM
B6 | 8.9 nM
B7 | 9 nM
B8 | 8.3 nM
B9 | 8.9 nM
B10 | 8.5 nM
B11 | 8.6 nM
B12 | 8.9 nM
B13 | 8.5 nM
B14 | 8.7 nM
B15 | 8.3 nM
B16 | 8.3 nM
B17 | 8.9 nM
B18 | 8.4 nM
B19 | 8.9 nM

— patent publication US20200095340A1
